Data published in patent publication US6602854B1, “Branched multimeric Apo A-I agonist compounds” (priority 1997, dated 2003).
Where no end group is shown, it is not given here. [ ]: non-standard residue; d: D form. Aib = CC(C)(N)C(=O)O

Assay: Circular dichroism: degree of helicity (free, SUVs, micelles, TFE)
Conditions: for He (%) free: percent helicity of free, unbound peptide; for He (%) TFE: percent helicity of peptide-TFE solution; for He (%) mics: percent helicity of peptide-micelle complexes; for He (%) SUVs: percent helicity of peptide-SUV complexes
Method: Far UV circular dichroism spectra were recorded between 190 and 260 nm (in 0.5 nm or 0.2 nm increments) with a AVIV62DS spectrometer (AVIV Associates, Lakewood, N.J., USA) equipped with a thermoelectric cell holder and sample changer. The instrument was calibrated with (+)-10-camphoric acid. Between one and three scans were collected for each sample, using 10 cm, 5 cm, 1 cm and 0.1 cm path length quartz Suprasil cells, respectively, for peptide concentrations of 10^−7 M to 10^−4 M. The bandwidth was fixed at 1.5 nm and the scan speed to 1 s per wavelength step. The reported data are the mean of at least 2 or 3 independent measurements.
After background substraction, spectra were converted to molar ellipticity (θ) per residue in deg. […] dmol^−1. The peptide concentration was determined by amino acid analysis and also by absorption spectrometry on a Perkin Elmer Lambda 17 UV/Visible spectrophotometer when the peptide contained a chromophore (tryptophane, dansyl, naphtylalanine).
CD spectra were obtained with free, unbound peptide (5 μM in 5 mM phosphate buffer, pH 7.4); with peptide-SUV complexes (20:1 EPC:Chol., Ri=30 and Ri=50); with peptide-micelle complexes (1-myristoyl-2-hydroxy-sn-glycero-3-phosphatidyl choline, Ri=100); and with free, unbound peptide in the presence of 2,2,2-trifluoroethanol (TFE) (5 μM peptide, 90% vol TFE).
The SUVs were obtained by dispersing the lipids (10 mM, 20:1 EPC:Chol., Avanti Polar Lipids, Ala.) in phosphate buffer (5 mM, pH 7.4) with bubbling N2 for 5 min., followed by sonication (1.5 hr.) in a bath sonicator. The homogeneity of the preparation was checked by FPLC.
The micelles were obtained by dispersing the lipid (6 mM 1-myristoyl-2-hydroxy-sn-glycero-3-phosphatidyl choline, Avanti Polar Lipids, AL) in phosphate buffer (5 mM, pH 7.4) with bubbling N2 for 5 min., followed by vortexing.
To obtain the peptide-SUV complexes, SUVs were added to the peptide (5 μM in 5 mM phosphate buffer, pH 7.4) at a phospholipid-peptide molar ratio (Ri) of 30 or 50.
To obtain the peptide-micelle complexes, micelles were added to the peptide (5 μM in 5 mM phosphate buffer, pH 7.4) at a Ri of 100.
All spectra were recorded at 37° C. The stability of peptide 4 (SEQ ID NO:4) as a function of temperature (both free in buffer and in micelles) was determined by recording spectra at a series of different temperatures.
The degree of helicity of peptide 4 (SEQ ID NO:4) as a function of concentration was also determined.
The degree of helicity of the peptides in the various conditions was determined from the mean residue ellipticity at 222 nm (Chen et al., 1974, Biochemistry 13:3350-3359) or by comparing the CD spectra obtained to reference spectra available on databases (16 helical reference spectra from Provencher & Glockner, 1981, Biochemistry 20:33-37; denatured protein reference spectra from Venyaminov et al., 1993, Anal. Biochem. 214:17-24) using the CONTIN curve-fitting algorithm version 2DP, CD-1 pack (Aug. 1982) (Provencher, 1982, Comput. Phys. Commun. 27:213-227, 229-242). Acceptable fit was determined using the statistical analysis methodology provided by the CONTIN algorithm.

Substance	He (%) free [%]	He (%) TFE [%]	He (%) mics [%]	He (%) SUVs [%]
31 (PVLDLFLELLNE[Aib]LEALKQKLK) [compound 31]	49	90	98	
35 (PVLDWFRELLNELLEALKQKLK) [compound 35]			59	61
36 (PLLELLKELLQELLEALKQKLK) [compound 36]	95	95	100	
37 (PVLDLFREWLNELLEALKQKLK) [compound 37]	65	73	75	76
38 (PVLDLFRELLNE[Aib]LEAWKQKLK) [compound 38]	25	49	49	21
39 (PVLDLFRELLEELLKALKKKLK) [compound 39]	66	72	69	68
40 (PVLDLFNELLRELLEALQKKLK) [compound 40]	66	77	84	79
41 (PVLDLWRELLNE[Aib]LEALKQKLK) [compound 41]	53	69	73	85
42 (PVLDEFREKLNE[Aib]WEALKQKLK) [compound 42]	15	76	74	27
45 (PVLDEFREKLNE[Aib]LEALKQKLK) [compound 45]		86	84	
46 (PVLDLFREKLNE[Aib]LEALKQKLK) [compound 46]	30	85	86	58
49 (PVLDLFRNLLEKLLEALEQKLK) [compound 49]	57	57	65	52
50 (PVLDLFRELLWE[Aib]LEALKQKLK) [compound 50]	68	76	84	89
51 (PVLDLFWELLNE[Aib]LEALKQKLK) [compound 51]	63	73	82	81
54 (PVLDLFRELLNEWLEALKQKLK) [compound 54]	76	78	71	84
55 (PLFRELLNELLEALKQKLK) [compound 55]	38	75	72	78
60 (PVLDLFRELLNELLEALKQ) [compound 60]	39	84	83	66
62 (PVLDEWREKLNE[Aib]LEALKQKLK) [compound 62]	15		85	43
66 (PVLDLFRNLLEELLEALQKKLK) [compound 66]	64	70	82	66
67 (VLDLFRELLNELLEALKQKLK) [compound 67]	81	94	90	84
70 (PVLDEFRELLYE[Aib]LEALKQKLK) [compound 70]	27	66	78	33
76 (PVLDEFRELLFE[Aib]LEALKQKLK) [compound 76]	41	66	88	

Substance	He (%) free [%]	He (%) TFE [%]	He (%) mics [%]	He (%) SUVs [%]
85 (PLDLFRELLNELLEALKQKLK) [compound 85]	58	69	61	64
91 (PVLDEFRELLNE[Aib]LEALKQKLK) [compound 91]	43	100	100	
99 (KLKQKLAELLENLLERFLDLVP) [compound 99]	72	80	88	80
104 (PLLNELLEALKQKLK) [compound 104]	21	55	49	29
105 (PAADAFREAANEAAEAAKQKAK) [compound 105]	29	65	28	32
108 (PVLDLFRWLLNE[Aib]LEALKQKLK) [compound 108]	28	54	55	
113 (PVLDEFREKLNEPLEALKQKLK) [compound 113]	6		22	
146 (PVLELFENLLERLLDALQKKLK) [compound 146]	97	95	100	100
148 (PVLELFENLLERLGDALQKKLK) [compound 148]	10	80	76	23
149 (PVLELFENLWERLLDALQKKLK) [compound 149]	28	47	54	
154 (PVLELFENLLERGLDALQKKLK) [compound 154]	13	80	76	25
160 (PVLELFENLLERLLDWLQKKLK) [compound 160]	65	61	73	75
162 (PVLELFENWLERLLDALQKKLK) [compound 162]	68		83	81
163 (PVLELFENLLERLWDALQKKLK) [compound 163]	27	55	53	
164 (PVLELFENLLERLLDAWQKKLK) [compound 164]	37	61	66	51
192 (Ac-PVLDLFKELLEELKQKLK-NH2) [compound 192]	36	56		
193 (Ac-PVLDLFRELLEELKQKLK-NH2) [compound 193]	34	87	88	87
194 (Ac-PVLELFRELLEELKQKLK-NH2) [compound 194]	38	93	93	
197 (Ac-PLLDLFRELLEELKQKLK-NH2) [compound 197]	43	69	70	
199 (Ac-PVLDLFRELWEELKQKLK-NH2) [compound 199]	35	79	77	80
209 (PVLDLFRELLNELLQKLK) [compound 209]	54	62	71	67
